1 substance from PMC5244374 can be followed below.

The target of the assay is homotarsinin (Htr), cystine-linked homodimer (Phyllomedusa tarsius). As to the kind of experiment: SEC; 2 mg/mL peptide, Superdex Peptide 10/300 GL, 20 mM phosphate pH 7.0, 0.3 M NaCl, room temperature, 0.3 mL/min; homotarsinin and distinctin compared by retention time. Background: Size exclusion chromatography separates by hydrodynamic size, large species first.

For orientation: stoichiometry N means the number of molecules, sites or subunits per partner or assembly. Substance “homotarsinin (Htr), cystine-linked homodimer (peptide)” came in with a stoichiometry N of 2.
